“And” between values parts separate entries of the source, which are not always exact repeats. Equal entries are not always repeated. Where two headings read alike, the source gives them in different places.
What was measured:
[1] = system: affinity purified β2GPI-dependent antiphospholipid antibody; test: Direct binding ELISA, nickel chelate-coated wells charged with recombinant β2GPI proteins (no cardiolipin); parameters: species or system human; settings: O.D. at 550 nm
Method in brief: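 His-tagged recombinant β2GPI mutants captured on nickel chelate wells in serial dilution (2 h, room temperature), no anionic phospholipid; GST-6his as negative control. Affinity-purified patient antibodies (11 patients) or rabbit anti-β2GPI detected by alkaline phosphatase anti-IgG, OD 550 nm.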

[2] = system: rabbit anti-β2GPI; test: Direct binding ELISA, nickel chelate-coated wells, rabbit antibody; settings: O.D. at 550 nm
Method: Nickel Chelate-coated microwell plates (NCP 010 00 Xenopore Corp. 374 Midland Ave. Saddle Brook, N.J. USA) were coated with 50 μl of serial dilutions of the various recombinant β2GPI, in PBS, at room temperature for 2 hours. The plates were washed three times with PBS and blocked with 75 μl of a 1% gelatin (Sigma #G-2500) in PBS for one hour room temperature. […] The plates were washed three times with PBS, 50 μl of alkaline phosphatase conjugated anti-immunoglobulin (anti-human IgG, gamma chain specific, Zymed #62-8422) or anti-rabbit IgG (Zymed #62-6122) diluted appropriately in 1% gelatin was added and incubated at 37° C. for one hour. The plates were washed three times with PBS, 50 μl of alkaline phosphatase PPMP chromogenic substrate solution was added and incubated for 30 minutes at room temperature. The optical density, at 550 nm, was determined by reading the plates in a microplate autoreader (Bio-Teck Instruments, model EL311).
Seven to nine different recombinant β2GPI mutant proteins were examined to determine if they could support the direct binding of affinity purified β2GPI-dependent antiphospholipid antibody preparations in the absence of anionic phospholipid. All recombinant mutant β2GPI were assayed with affinity purified β2GPI-dependent antiphospholipid antibody preparations from 11 different patients. Each mutant recombinant β2GPI protein was tested, in a dose dependent fashion and GST-6his was included as a negative control. The recombinant mutant β2GPI proteins were bound to nickel coated microtiter plates via their 6-his tail. All recombinant mutant β2GPI proteins tested bound rabbit anti-β2GPI showing that they were assessable by antibody (FIG. 5).

[3] = system: affinity purified β2GPI-dependent antiphospholipid antibody; test: Competitive inhibition ELISA: recombinant β2GPI proteins compete for antibody binding to coated full length recombinant β2GPI; parameters: species or system human; settings: for IC50: read-out: 50% (concentration to give 50% inhibition)
Method in brief: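 Wells coated with full-length recombinant β2GPI (10 μg/ml, pH 9.5) and milk-blocked. Serially diluted recombinant β2GPI proteins were co-incubated with a fixed concentration of patient antibody for 1 h at 37 °C. Bound IgG detected with alkaline phosphatase anti-human IgG at OD550; percent inhibition is background-corrected against inhibitor-free wells.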

B1: recombinant β2GPI domain 5 with GlyHis6 (----5) (protein)
chain: GRASCKLPVKKATVVYQGERVKIQEKFKNGMLHGDKVSFFCKNKEKKCSYTEDAQCIDGTIEVPKCFKEHSSLAFWKTDASDVKPCGHHHHHH
- Maximum O.D. ([1]; Ab 6203): 0.044
- Maximum O.D. ([1]; Ab 6501): 0.004
- Maximum O.D. ([1]; Ab 6626): 0.028
- Maximum O.D. ([1]; Ab 6632): 0.013
- Maximum O.D. ([1]; Ab 6641): 0.018
- Maximum O.D. ([1]; Ab 6644): 0.017
- Maximum O.D. ([1]; Ab 6652): 0.012
- Maximum O.D. ([1]; Ab 6701): 0.000
- Maximum O.D. ([1]; Ab 7008): 0.007
- Maximum O.D. ([1]; Ab 7015): 0.078
- Maximum O.D. ([1]; Ab 7101): 0.078
- Maximum O.D. [2]: 1.663
- Max (maximum inhibition observed at concentrations tested) ([3]; Ab 6203): 5%
- IC50 ([3]; Ab 6203): > 47 µM
- Max (maximum inhibition observed at concentrations tested) ([3]; Ab 6501): 10%
- IC50 ([3]; Ab 6501): > 47 µM
- Max (maximum inhibition observed at concentrations tested) ([3]; Ab 6509): 10%
- IC50 ([3]; Ab 6509): > 47 µM
- Max (maximum inhibition observed at concentrations tested) ([3]; Ab 6626): 10%
- IC50 ([3]; Ab 6626): > 47 µM
- Max (maximum inhibition observed at concentrations tested) ([3]; Ab 6632): 10%
- IC50 ([3]; Ab 6632): > 47 µM
- Max (maximum inhibition observed at concentrations tested) ([3]; Ab 6641): 10%
- IC50 ([3]; Ab 6641): > 47 µM
- Max (maximum inhibition observed at concentrations tested) ([3]; Ab 6644): 10%
- IC50 ([3]; Ab 6644): > 47 µM
- Max (maximum inhibition observed at concentrations tested) ([3]; Ab 6652): 15%
- IC50 ([3]; Ab 6652): > 47 µM
- Max (maximum inhibition observed at concentrations tested) ([3]; Ab 6701): 10%
- IC50 ([3]; Ab 6701): > 47 µM
- Max (maximum inhibition observed at concentrations tested) ([3]; Ab 7008): 20%
- IC50 ([3]; Ab 7008): > 47 µM
- Max (maximum inhibition observed at concentrations tested) ([3]; Ab 7015): 10%
- IC50 ([3]; Ab 7015): > 47 µM
- Max (maximum inhibition observed at concentrations tested) ([3]; Ab 7101): 5%
- IC50 ([3]; Ab 7101): > 47 µM
- Max (maximum inhibition observed at concentrations tested) ([3]; Ab 7104): 0%
- IC50 ([3]; Ab 7104): > 47 µM

B2: 12345: recombinant full length human β2GPI (domains 1-5) with C-terminal GlyHis6, baculovirus expressed (protein)
chain: GRTCPKPDDLPFSTVVPLKTFYEPGEEITYSCKPGYVSRGGMRKFICPLTGLWPINTLKCTPRVCPFAGILENGAVRYTTFEYPNTISFSCNTGFYLNGADSAKCTEEGKWSPELPVCAPIICPPPSIPTFATLRVYKPSAGNNSLYRDTAVFECLPQHAMFGNDTITCTTHGNWTKLPECREVKCPFPSRPDNGFVNYPAKPTLYYKDKATFGCHDGYSLDGPEEIECTKLGNWSAMPSCKASCKLPVKKATVVYQGERVKIQEKFKNGMLHGDKVSFFCKNKEKKCSYTEDAQCIDGTIEVPKCFKEHSSLAFWKTDASDVKPCGHHHHHH
- Maximum O.D. ([1]; Ab 6203): 1.270
- Maximum O.D. ([1]; Ab 6501): 1.772
- Maximum O.D. ([1]; Ab 6626): 1.527
- Maximum O.D. ([1]; Ab 6632): 1.419
- Maximum O.D. ([1]; Ab 6641): 2.555
- Maximum O.D. ([1]; Ab 6644): 1.848
- Maximum O.D. ([1]; Ab 6652): 0.640
- Maximum O.D. ([1]; Ab 6701): 0.948
- Maximum O.D. ([1]; Ab 7008): 1.380
- Maximum O.D. ([1]; Ab 7015): 1.864
- Maximum O.D. ([1]; Ab 7101): 1.257
- Maximum O.D. [2]: 2.065
- Max (maximum inhibition observed at concentrations tested) ([3]; Ab 6203): 75%
- IC50 ([3]; Ab 6203): 0.8 µM
- Max (maximum inhibition observed at concentrations tested) ([3]; Ab 6501): 80%
- IC50 ([3]; Ab 6501): 0.2 µM
- Max (maximum inhibition observed at concentrations tested) ([3]; Ab 6509): 70%
- IC50 ([3]; Ab 6509): 0.1 µM
- Max (maximum inhibition observed at concentrations tested) ([3]; Ab 6626): 80%
- IC50 ([3]; Ab 6626): 0.3 µM
- Max (maximum inhibition observed at concentrations tested) ([3]; Ab 6632): 90%
- IC50 ([3]; Ab 6632): 0.8 µM
- Max (maximum inhibition observed at concentrations tested) ([3]; Ab 6641): 96%
- IC50 ([3]; Ab 6641): 0.1 µM
- Max (maximum inhibition observed at concentrations tested) ([3]; Ab 6644): 90%
- IC50 ([3]; Ab 6644): 0.2 µM
- Max (maximum inhibition observed at concentrations tested) ([3]; Ab 6652): 95%
- IC50 ([3]; Ab 6652): 0.8 µM
- Max (maximum inhibition observed at concentrations tested) ([3]; Ab 6701): 100%
- IC50 ([3]; Ab 6701): 0.1 µM
- Max (maximum inhibition observed at concentrations tested) ([3]; Ab 7008): 90%
- IC50 ([3]; Ab 7008): 0.2 µM
- Max (maximum inhibition observed at concentrations tested) ([3]; Ab 7015): 90%
- IC50 ([3]; Ab 7015): 0.2 µM
- Max (maximum inhibition observed at concentrations tested) ([3]; Ab 7101): 80%
- IC50 ([3]; Ab 7101): 0.8 µM
- Max (maximum inhibition observed at concentrations tested) ([3]; Ab 7104): 90%
- IC50 ([3]; Ab 7104): 0.8 µM

B3: 1----: recombinant β2GPI protein with domain 1 only (SEQ ID NO:4 region), His6 tail (protein)
chain: GRTCPKPDDLPFSTVVPLKTFYEPGEEITYSCKPGYVSRGGMRKFICPLTGLWPINTLKCTPRVGHHHHHH
- Maximum O.D. ([1]; Ab 6203): 1.029
- Maximum O.D. ([1]; Ab 6501): 0.911
- Maximum O.D. ([1]; Ab 6626): 0.560
- Maximum O.D. ([1]; Ab 6632): 0.351
- Maximum O.D. ([1]; Ab 6641): 0.252
- Maximum O.D. ([1]; Ab 6644): 0.493
- Maximum O.D. ([1]; Ab 6652): 0.262
- Maximum O.D. ([1]; Ab 6701): 0.388
- Maximum O.D. ([1]; Ab 7008): 0.195
- Maximum O.D. ([1]; Ab 7015): 1.102
- Maximum O.D. ([1]; Ab 7101): 0.804
- Maximum O.D. [2]: 1.9737
- Max (maximum inhibition observed at concentrations tested) ([3]; Ab 6203): 60%
- Max (maximum inhibition observed at concentrations tested) ([3]; Ab 6203, listed as 1 - - - -): 20%
- IC50 ([3]; Ab 6203): > 10 µM
- Max (maximum inhibition observed at concentrations tested) ([3]; Ab 6501): 70%
- Max (maximum inhibition observed at concentrations tested) ([3]; Ab 6501, listed as 1 - - - -): 30%
- IC50 ([3]; Ab 6501, listed as 1 - - - -): > 10 µM
- Max (maximum inhibition observed at concentrations tested) ([3]; Ab 6626): 85%
- Max (maximum inhibition observed at concentrations tested) ([3]; Ab 6626, listed as 1 - - - -): 50%
- IC50 ([3]; Ab 6626, listed as 1 - - - -): > 10 µM
- IC50 ([3]; Ab 6626): 8 µM and > 10 µM
- Max (maximum inhibition observed at concentrations tested) ([3]; Ab 6632): 90%
- Max (maximum inhibition observed at concentrations tested) ([3]; Ab 6632, listed as 1 - - - -): 70%
- IC50 ([3]; Ab 6632, listed as 1 - - - -): 3 µM
- IC50 ([3]; Ab 6632): 8 µM
- Max (maximum inhibition observed at concentrations tested) ([3]; Ab 6641): 98%
- IC50 ([3]; Ab 6641): > 10 µM
- Max (maximum inhibition observed at concentrations tested) ([3]; Ab 6644): 90%
- Max (maximum inhibition observed at concentrations tested) ([3]; Ab 6644, listed as 1 - - - -): 45%
- IC50 ([3]; Ab 6644, listed as 1 - - - -): > 10 µM
- IC50 ([3]; Ab 6644): 8 µM and > 10 µM
- Max (maximum inhibition observed at concentrations tested) ([3]; Ab 6701): 80%
- IC50 ([3]; Ab 6701): 4 µM
- Max (maximum inhibition observed at concentrations tested) ([3]; Ab 7008): 70%
- Max (maximum inhibition observed at concentrations tested) ([3]; Ab 7008, listed as 1 - - - -): 40%
- IC50 ([3]; Ab 7008): > 10 µM
- Max (maximum inhibition observed at concentrations tested) ([3]; Ab 7015): 90%
- Max (maximum inhibition observed at concentrations tested) ([3]; Ab 7015, listed as 1 - - - -): 30%
- IC50 ([3]; Ab 7015, listed as 1 - - - -): > 10 µM
- IC50 ([3]; Ab 7015): 8 µM and > 10 µM
- Max (maximum inhibition observed at concentrations tested) ([3]; Ab 7101): 70%
- Max (maximum inhibition observed at concentrations tested) ([3]; Ab 7101, listed as 1 - - - -): 20%
- IC50 ([3]; Ab 7101, listed as 1 - - - -): > 10 µM
- IC50 ([3]; Ab 7101): 8 µM and > 10 µM
- Max (maximum inhibition observed at concentrations tested) ([3]; Ab 7104): 90%
- IC50 ([3]; Ab 7104): 0.8 µM
